Biological target: human µPlm P642A (human)
Assay: cell-based or functional assay

IC50 of α2-AP inhibition of amidolytic activity, fold relative to the wild-type: 2 fold of wild type
B1: human alpha-2 antiplasmin (α2-AP), mature (natural protein, UniProt P08697-1 40-491, looked up)
chain: NQEQVSPLTLLKLGNQEPGGQTALKSPPGVCSRDPTPEQTHRLARAMMAFTADLFSLVAQTSTCPNLILSPLSVALALSHLALGAQNHTLQRLQQVLHAGSGPCLPHLLSRLCQDLGPGAFRLAARMYLQKGFPIKEDFLEQSEQLFGAKPVSLTGKQEDDLANINQWVKEATEGKIQEFLSGLPEDTVLLLLNAIHFQGFWRNKFDPSLTQRDSFHLDEQFTVPVEMMQARTYPLRWFLLEQPEIQVAHFPFKNNMSFVVLVPTHFEWNVSQVLANLSWDTLHPPLVWERPTKVRLPKLYLKHQMDLVATLSQLGLQELFQAPDLRGISEQSLVVSGVQHQSTLELSEVGVEAAAATSIAMSRMSLSSFSVNRPFLFFIFEDTTGLPLFVGSVRNPNPSAPRELKEQQDSPGNKDFLQSLKGFPRGDKLFGPDLKLVPPMEEDYPQFGSPK

— article PMC7374754, “Selection of mutant µplasmin for amyloid-β cleavage in vivo” (Scientific Reports, 2020)
